The source of these data is IntAct's records for PubMed 22949657.

This test addresses T1, tp8l2_human TNFAIP8L2 (UniProt Q6P589).
T1 sequence: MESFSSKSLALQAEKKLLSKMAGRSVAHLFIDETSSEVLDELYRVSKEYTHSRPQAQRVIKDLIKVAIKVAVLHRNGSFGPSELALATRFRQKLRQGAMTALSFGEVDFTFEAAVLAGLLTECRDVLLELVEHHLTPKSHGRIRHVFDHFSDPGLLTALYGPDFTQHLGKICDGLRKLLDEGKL

On to “Ras-related C3 botulinum toxin substrate 1 (Homo sapiens) (from UniProt P63000-1) C189S”, for which the “effect of a mutation on the interaction” value is reported as “disrupting interaction strength”.
